Measurements taken from patent publication JP2008278814A (dated 2008).

What was measured:
[1] = target: T1, ヒトGITR(glucocorticoid-induced tumor necrosis factor receptor-family related gene) (human, UniProt Q9Y5U5 26-241); assay: cell ELISA and flow cytometry of hybridoma supernatant on 293T/GITR cells
T1 construct: whole, on cells; also called TNFRSF18
T1 sequence (looked up): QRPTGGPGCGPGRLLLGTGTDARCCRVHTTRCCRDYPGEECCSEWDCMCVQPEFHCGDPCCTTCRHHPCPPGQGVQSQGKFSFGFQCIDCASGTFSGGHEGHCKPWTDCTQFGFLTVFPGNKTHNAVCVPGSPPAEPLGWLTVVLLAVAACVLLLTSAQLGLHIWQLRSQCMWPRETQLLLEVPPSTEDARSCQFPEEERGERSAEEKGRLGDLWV

[2] = target: T2, GITR断片(アミノ酸翻訳部分N末端1-72番目)−HIDE1の膜貫通領域−mycタグ (human, UniProt Q9Y5U5 26-72); assay: immunoprecipitation from 293T lysate, Western blot with HRP-labelled anti-myc antibody
T2 construct: domain: 膜貫通領域; also called N末端1-72番目のGITR断片; not shown: HIDE1 transmembrane region; myc tag
T2 chain: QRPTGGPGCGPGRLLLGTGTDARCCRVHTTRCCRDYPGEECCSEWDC

[3] = target: T3, GITR断片(アミノ酸翻訳部分N末端1-65番目)−HIDE1の膜貫通領域−mycタグ (human, UniProt Q9Y5U5 26-65); assay: as above
T3 construct: domain: 膜貫通領域; Includes the signal peptide as encoded; no cleavage site stated; also called N末端1-65番目のGITR断片; not shown: HIDE1 transmembrane region; myc tag
T3 chain: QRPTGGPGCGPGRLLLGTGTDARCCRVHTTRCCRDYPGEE

[4] = target: T4, GITR断片(アミノ酸翻訳部分N末端1-60番目)−HIDE1の膜貫通領域−mycタグ (human); assay: as above
T4 construct: domain: 膜貫通領域; Includes the signal peptide as encoded; no cleavage site stated; also called GITRの1-180塩基長; N末端1-60番目のGITR断片; not shown: HIDE1 transmembrane region; myc tag
T4 chain: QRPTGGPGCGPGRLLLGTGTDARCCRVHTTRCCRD

Measured: binding result

B1: 抗ヒトGITRモノクローナル抗体(40-44抗体) (antibody, V domains shown)
VH: QVQLQQSGAELVRPGTSVKVSCKASGYAFSNYLIEWVKQRPGQGLEWIGVINPGSGSTNYNEKFKGKATLTADKSSSTAYMQLSSLTSDDSAVYFCARRTYYYGSNYYAMDYWGQGTSVTVSS
VL: DIQMNQSPSSLSSSLGDTITITCHASQNINVWLSWYQQKPGNIPKLLIYKASNLHTGVPSRFSGSGSGTGFTLTISSLQPEDIATYYCQQGQSYPFTFGSGTKLEIK
notes: Mouse (Balb/c) hybridoma monoclonal antibody; mouse IgG2A and mouse IgG1 were used as controls in different experiments; also called 抗ヒトGITR抗体
binds: all assays above
